B1: FOLR1-Ab1 (antibody, V domains shown)
VH: QVQLQQPGAELVRPGASVKLSCKASGYTFTSYWMNWVKQRPEQGLEWIGRINPYDSETHSNQKFKDKAILTVDKSSTTAYMQLSSLTSEDSAVYYCARSGGYAWFAYWGQGTLVTVSA
VL: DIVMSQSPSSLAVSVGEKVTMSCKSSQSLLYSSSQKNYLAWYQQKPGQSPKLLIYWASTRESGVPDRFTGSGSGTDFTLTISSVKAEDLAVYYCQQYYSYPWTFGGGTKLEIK
notes: Monoclonal antibody from a hybridoma clone; V regions amplified with mouse Ig primers
B2: FOLR1-Ab20 (antibody, V domains shown)
VH: EVLLQQSGPELVKPGASVKIPCKASGYTFTDYNMDWVKQSHGKSLEWIGDINPNNGGTIYNQKFKGKATLTVDKSSSTAYMELRSLTSEDTAVYYCARKPYYGPRYFDVWGAGTTVTVSS
VL: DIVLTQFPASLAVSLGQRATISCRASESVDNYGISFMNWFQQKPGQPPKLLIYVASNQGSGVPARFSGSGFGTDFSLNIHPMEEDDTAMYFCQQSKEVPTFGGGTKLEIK
notes: as for B1
B3: FOLR1-Ab23 (antibody, V domains shown)
VH: B2 VH
VL: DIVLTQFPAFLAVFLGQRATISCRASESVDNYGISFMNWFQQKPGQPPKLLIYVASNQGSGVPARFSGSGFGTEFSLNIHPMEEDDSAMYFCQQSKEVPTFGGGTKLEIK
notes: as for B1
B4: FOLR1-Ab14 (antibody, V domains shown)
VH: B2 VH
VL: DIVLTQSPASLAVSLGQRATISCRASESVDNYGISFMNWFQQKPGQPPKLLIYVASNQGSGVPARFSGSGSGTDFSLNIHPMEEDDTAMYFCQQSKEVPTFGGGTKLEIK
notes: as for B1
B5: FOLR1-Ab4 (antibody, V domains shown)
VH: QIQLVQSGPELKKPGETVKISCKASIYTFTDYSIQWVKQAPGKGLKWMGWINTETGEPTYADDFKGRFAFSLESSASTAFLQINNLKNEDTATYFCARMGYYGPKIMDYWGQGTSVTVSS
VL: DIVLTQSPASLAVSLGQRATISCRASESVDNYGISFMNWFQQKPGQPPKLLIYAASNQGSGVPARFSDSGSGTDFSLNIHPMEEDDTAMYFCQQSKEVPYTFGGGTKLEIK
notes: as for B1

Molecular target: recombinant FOLR1 protein (rProtein) (Homo sapiens (Human), UniProt P15328 25-234, limits assumed)
Sequence (P15328 25-234 limits assumed): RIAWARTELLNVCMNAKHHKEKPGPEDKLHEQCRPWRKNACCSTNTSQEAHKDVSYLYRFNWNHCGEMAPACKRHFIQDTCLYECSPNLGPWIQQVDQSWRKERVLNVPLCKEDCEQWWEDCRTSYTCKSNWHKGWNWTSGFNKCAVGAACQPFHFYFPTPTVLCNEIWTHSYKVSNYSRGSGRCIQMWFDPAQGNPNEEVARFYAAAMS
Experiment: ELISA titration with varying concentrations of recombinant FOLR1 protein
Experimental: Antibodies were tested in an antigen binding assay using ELISA titration experiments.

Row | Binder | rProtein ELISA Affinity
1 | B1 | 0.39 nM
2 | B2 | 12.5 nM
3 | B3 | 6.25 nM
4 | B4 | 3.12 nM
5 | B5 | 0.78 nM
